Assay results reported in patent publication US5446130A, “Parathyroid hormone antagonists” (Mitsubishi Kasei Corporation, priority 1990, dated 1995).
Like-named read-outs stand apart in the source and are kept apart here. Where no end group is shown, it is not given here. The star is where a group is joined. Myristoyl = CCCCCCCCCCCCCC(=O)*

T1: hPTH (1-34) (human, UniProt P01270)
T1 peptide: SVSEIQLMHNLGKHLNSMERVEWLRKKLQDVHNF


Legend:
hPTH (1-34) [1] = target: T1, hPTH (1-34)
hPTH (1-34) [2] = target: T1, hPTH (1-34); conditions: scale: ratio of IC50 to that of [Tyr34]-hPTH(3-34)-NH2
[3] = system: output of cAMP produced by 5×10^-9 M hPTH (1-34) in cultured mouse osteoblast MC3T3-E1; assay: Determination of PTH antagonism: inhibition of cAMP output induced by hPTH (1-34) in cultured mouse osteoblast MC3T3-E1; assay type: cell-based
Experimental: PTH antagonism of the PTHrP derivatives (I) of the present invention was determined on the basis of the output of cAMP, using cultured mouse osteoblast MC3T3-E1.
To a multiwell-culture plate of 12-well were inoculated 1×10^5 cells/well of the cultured cells, and the plate was incubated at 37° C. under 95% air-5% CO2 atmosphere for 3 days after addition of α-modified MEM containing 10% semi-fetal bovine serum as a medium. Then, the medium was exchanged with α-modified MEM containing 1% bovine serum albumin and the cultured cells were incubated for 6 hours. The medium was replaced by α-modified MEM containing various concentrations of the compound of the present invention, 5×10^-9 M hPTH (1-34), 1% bovine serum albumin and 1 mM isobutylmethylxanthin, and the mixture was incubated for 1 hour. The medium was separated from the cells, and the medium was used as a sample for assaying cAMP. The cells were shaken with 90% n-propyl alcohol to extract cAMP according to Yamaguchi et al., J. Biol. Chem., 262, 7711-7718 (1987) for preparing another sample.
Assay of cAMP was performed using a commercially available cAMP-radioimmunoassay kit. […] Compound numbers in the tables correspond to those in Table 2.

hPTH (1-34) [4] = target: T1, hPTH (1-34); assay: cell-based or functional assay
hPTH (1-34) [5] = target: T1, hPTH (1-34); assay: cell-based or functional assay

| IC50 Ratio: 50% inhibition of cAMP output, MC3T3-E1 mouse osteoblasts (hPTH (1-34) [5]) | Molecule | further results |
| --- | --- | --- |
|  | [Leu^11,D-Trp^12]-hPTHrP(7-34)-NH2 (from UniProt P12272) (peptide) | IC50 Ratio: 50% inhibition of cAMP output, MC3T3-E1 mouse osteoblasts (ratio of IC50 to that of Compound No. 15) (hPTH (1-34) [1]): 3.91 |
|  | [Tyr^34]-hPTH (3-34)-NH2 (from UniProt P01270) (peptide) | IC50 Ratio: 50% inhibition of cAMP output, MC3T3-E1 mouse osteoblasts (hPTH (1-34) [2]): 1 |
|  | CCCCCCCCCCCCCC(=O)N[C@@H](CCC(N)=O)C(=O)N[C@@H](CC(C)C)C(=O)N[C@@H](CCSC)C(=O)N[C@@H](Cc1c[nH]cn1)C(=O)N[C@@H](CC(=O)O)C(=O)N[C@@H](CCCCN)C(=O)NCC(=O)N[C@@H](CCCCN)C(=O)N[C@@H](CO)C(=O)N[C@H](C(=O)N[C@@H](CCC(N)=O)C(=O)N[C@@H](CC(=O)O)C(=O)N[C@@H](CC(C)C)C(=O)N[C@@H](CCCNC(=N)N)C(=O)N[C@@H](CCCNC(=N)N)C(=O)N[C@@H](CCCNC(=N)N)C(=O)N[C@@H](Cc1ccccc1)C(=O)N[C@@H](Cc1ccccc1)C(=O)N[C@@H](CC(C)C)C(=O)N[C@@H](Cc1c[nH]cn1)C(=O)N[C@@H](Cc1c[nH]cn1)C(=O)N[C@@H](CC(C)C)C(=O)N[C@H](C(=O)N[C@@H](C)C(=O)N[C@@H](CCC(=O)O)C(=O)N[C@H](C(=O)N[C@@H](Cc1c[nH]cn1)C(=O)N[C@H](C(=O)N[C@@H](C)C(N)=O)[C@@H](C)O)[C@@H](C)CC)[C@@H](C)CC)[C@@H](C)CC [Compound No. 10] | IC50 Ratio ([3]; Table 4, 50% inhibition of cAMP output by 5×10^-9 M hPTH (1-34), ratio to control Compound No. 15 = 1): 2.24 |
|  | CC[C@H](C)[C@H](NC(=O)[C@H](CC(C)C)NC(=O)[C@H](Cc1c[nH]cn1)NC(=O)[C@H](Cc1c[nH]cn1)NC(=O)[C@H](CC(C)C)NC(=O)[C@H](Cc1ccccc1)NC(=O)[C@H](Cc1ccccc1)NC(=O)[C@H](CCCNC(=N)N)NC(=O)[C@H](CCCNC(=N)N)NC(=O)[C@H](CCCNC(=N)N)NC(=O)[C@H](CC(C)C)NC(=O)[C@H](CC(=O)O)NC(=O)[C@H](CCC(N)=O)NC(=O)[C@@H](NC(=O)[C@H](CO)NC(=O)[C@H](CCCCN)NC(=O)CNC(=O)[C@H](CC(C)C)NC(=O)[C@H](C)NC(=O)[C@H](Cc1c[nH]cn1)NC(=O)[C@H](CCSC)NC(=O)[C@H](CC(C)C)NC(=O)[C@H](CCC(N)=O)NC(=O)[C@@H](NC(=O)[C@H](CCC(=O)O)NC(=O)[C@@H](N)CO)[C@@H](C)CC)[C@@H](C)CC)C(=O)N[C@@H](C)C(=O)N[C@@H](CCC(=O)O)C(=O)N[C@H](C(=O)N[C@@H](Cc1c[nH]cn1)C(=O)N[C@H](C(=O)N[C@@H](C)C(N)=O)[C@@H](C)O)[C@@H](C)CC [Compound No. 1] | IC50 Ratio ([3]; Table 3, 50% inhibition of cAMP output by 5×10^-9 M hPTH (1-34), ratio to control [Tyr34]-hPTH (3-34)-NH2 = 1): 0.003; concentration for 50% inhibition as fraction of that of [Tyr^34 ]-hPTH (3-34)-NH2 ([3]; relative to [Tyr34]-hPTH (3-34)-NH2): below 1/300; concentration for 50% inhibition as fraction of that of hPTHrP (3-34)-NH2 ([3]; relative to hPTHrP (3-34)-NH2): about 1/29 |
|  | FQLMHDKGKSIQDLRRRFFLHHLIAEIHTA-NH2 [Compound No. 8] | IC50 Ratio: 50% inhibition of cAMP output, MC3T3-E1 mouse osteoblasts (hPTH (1-34) [4]): 0.026 ratio of IC50 to that of [Tyr34]-hPTH(3-34)-NH2 |
|  | SEIQLMHALGKSIQDLRRRFFLHHLIAEIHTA-NH2 [Compound No. 1] | IC50 Ratio: 50% inhibition of cAMP output, MC3T3-E1 mouse osteoblasts (hPTH (1-34) [4]): 0.003 ratio of IC50 to that of [Tyr34]-hPTH(3-34)-NH2 |
| 1.97 ratio of IC50 to that of Compound No. 15 | IQLMHALGKSIQDLRRRFFLHHLIAEIHTA-NH2 [Compound No. 18] |  |
| 1.01 ratio of IC50 to that of Compound No. 15 | IQLMHDKGKSIQDLRRRFFLHKLIAEIHTA-NH2 [Compound No. 20] |  |
|  | SEIQLMHQLGKSIQDLRRRFFLHHLIAEIHTA-NH2 [Compound No. 2] | IC50 Ratio: 50% inhibition of cAMP output, MC3T3-E1 mouse osteoblasts (hPTH (1-34) [4]): 0.003 ratio of IC50 to that of [Tyr34]-hPTH(3-34)-NH2 |
| 1.02 ratio of IC50 to that of Compound No. 15 | LQLMHDKGKSIQDLRRRFFLHHLIAEIHTA-NH2 [Compound No. 9] |  |
| 0.934 ratio of IC50 to that of Compound No. 15 | Ac-IQLMHDKGKSIQDLRRRFFLHHLIAEIHTA-NH2 [Compound No. 21] |  |
| 0.934 ratio of IC50 to that of Compound No. 15 | IQLMHDKGKSIQDLRRRFFLRHLIAEIHTA-NH2 [Compound No. 19] |  |
| 1.17 ratio of IC50 to that of Compound No. 15 | IQLMHAKGKSIQDLRRRFFLHHLIAEIHTA-NH2 [Compound No. 17] |  |
| 2.24 ratio of IC50 to that of Compound No. 15 | XLMHDKGKSIQDLRRRFFLHHLIAEIHTA (N-terminal myristoyl (Myr-Gln); C-terminal amide (Ala-NH2)) [Compound No. 10] |  |
| 0.922 ratio of IC50 to that of Compound No. 15 | IQXMHDKGKSIQDLRRRFFLHHLIAEIHTA (Nle (norleucine) as third residue (EEE); C-terminal amide (Ala-NH2)) [Compound No. 14] |  |
| 0.765 ratio of IC50 to that of Compound No. 15 | Myristoyl-IQLMHDKGKSIQDLRRRFFLHHLIAEIHTA-NH2 (SMILES CCCCCCCCCCCCCC(=O)N[C@H](C(=O)N[C@@H](CCC(N)=O)C(=O)N[C@@H](CC(C)C)C(=O)N[C@@H](CCSC)C(=O)N[C@@H](Cc1c[nH]cn1)C(=O)N[C@@H](CC(=O)O)C(=O)N[C@@H](CCCCN)C(=O)NCC(=O)N[C@@H](CCCCN)C(=O)N[C@@H](CO)C(=O)N[C@H](C(=O)N[C@@H](CCC(N)=O)C(=O)N[C@@H](CC(=O)O)C(=O)N[C@@H](CC(C)C)C(=O)N[C@@H](CCCNC(=N)N)C(=O)N[C@@H](CCCNC(=N)N)C(=O)N[C@@H](CCCNC(=N)N)C(=O)N[C@@H](Cc1ccccc1)C(=O)N[C@@H](Cc1ccccc1)C(=O)N[C@@H](CC(C)C)C(=O)N[C@@H](Cc1c[nH]cn1)C(=O)N[C@@H](Cc1c[nH]cn1)C(=O)N[C@@H](CC(C)C)C(=O)N[C@H](C(=O)N[C@@H](C)C(=O)N[C@@H](CCC(=O)O)C(=O)N[C@H](C(=O)N[C@@H](Cc1c[nH]cn1)C(=O)N[C@H](C(=O)N[C@@H](C)C(N)=O)[C@@H](C)O)[C@@H](C)CC)[C@@H](C)CC)[C@@H](C)CC)[C@@H](C)CC) [Compound No. 22] |  |
| 1 ratio of IC50 to that of Compound No. 15 | IQLMHDKGKSIQDLRRRFFLHHLIAEIHTA-NH2 [[Ile^5, Met^8]-hPTHrP (5-34)-NH2] | IC50 Ratio: 50% inhibition of cAMP output, MC3T3-E1 mouse osteoblasts (hPTH (1-34) [4]): 0.017 ratio of IC50 to that of [Tyr34]-hPTH(3-34)-NH2 |
